Assay results taken from patent US20250101071A1 (PAUL EHRLICH INSTITUT BUNDESINSTITUT F R IMPFSTOFFE UND …, published 2025).

B1: DARPin 53.A8 (designed binder)
chain: DLGKKLLEATRAGQDDEVRILMANGANVNATDEEGLTPLHLAALDGHLEIVEVLLKYGADVNADDMHGPTPLHLAAYAGHLEIVEVLLKYGADVNAYDCGGHTPLHLAARLGHLEIVEVLLKYGADVNAQDKFGKTPFDLAIDNGNEDIAEVLQKAA
B2: recombinant human CD32a extracellular domain with C-terminal His-tag, biotinylated (H167R) (receptor)
chain: QAAAPPKAVLKLEPPWINVLQEDSVTLTCQGARSPESDSIQWFHNGNLIPTHTQPSYRFKANNNDSGEYTCQTGQTSLSDPVHLTVLSEWLVLQTPHLEFQEGETIMLRCHSWKDKPLVKVTFFQNGKSQKFSRLDPTFSIPQANHSHSGDYHCTGNIGYTLFSSKPVTITVQVPSMGSSSPMG
notes: also called CD32a-His; recombinant CD32a protein; not shown: C-terminal His-tag

Assays:
Test in all cases: SPR, Biacore T200, biotinylated CD32a on neutravidin chip, DARPin as analyte
[1] = molecular target: B2
DARPin 53.H3 = molecular target: DARPin 53.H3
DARPin 53.2.F11 = molecular target: DARPin 53.2.F11
DARPin 52.H6 = molecular target: DARPin 52.H6
DARPin 53.2F11[TEV] = molecular target: DARPin 53.2F11[TEV]
DARPin 53.C8 = molecular target: DARPin 53.C8
DARPin 53.D8 = molecular target: DARPin 53.D8

Measured: Kd

B1
< 2 nM: [1]

B2
< 2 nM: DARPin 53.H3 | DARPin 53.2.F11 | DARPin 52.H6 | DARPin 53.2F11[TEV] | DARPin 53.C8 | DARPin 53.D8
